Data taken from article doi:10.1101/2023.02.05.527200 (bioRxiv, 2023).
Where two headings read alike, the source gives them in different places.

Experiments:
V5 peptide [1] = molecular target: T1, V5 peptide (Parainfluenza virus 5 (strain W3) …); test: ITC
T1 chain: GKPIPNPLLGLDST

V5 peptide [2] = molecular target: T1, V5 peptide; test: ITC

B1: NbV5 (VHH)
VHH: EVQLQASGGGFVQPGGSLRLSCAASGTTSFGDTMGWFRQAPGKEREFVSAISRQGDKHYYADSVKGRFTISRDNSKNTVYLQMNSLRAEDTATYYCAEWMNTRREFITPYWGQGTQVTVSS
B1 showed a Kd (V5 peptide [1]) of ~218 nM and a Kd (V5 peptide [2]) of 574 nM.
